Results on two molecules are retold here after US20210163590A1 (WUXI BIOLOGICS IRELAND, published 2021).

In general, EC50 refers to the midpoint of the concentration-response curve. Broadly, the Kd is the constant that tells how readily two partners part at equilibrium. Broadly, the koff is a measure of how fast the partners let go of each other. One may read the kon as the second-order rate constant of association.

Experiment [1] deals with T1, cynomolgus monkey TIM-3 on the cell surface (cynomolgus monkey, UniProt A0A2K5U3G7 22-294).
T1 construct: whole, on cells; also called cyno TIM-3-expressing transfectant cells
T1 sequence: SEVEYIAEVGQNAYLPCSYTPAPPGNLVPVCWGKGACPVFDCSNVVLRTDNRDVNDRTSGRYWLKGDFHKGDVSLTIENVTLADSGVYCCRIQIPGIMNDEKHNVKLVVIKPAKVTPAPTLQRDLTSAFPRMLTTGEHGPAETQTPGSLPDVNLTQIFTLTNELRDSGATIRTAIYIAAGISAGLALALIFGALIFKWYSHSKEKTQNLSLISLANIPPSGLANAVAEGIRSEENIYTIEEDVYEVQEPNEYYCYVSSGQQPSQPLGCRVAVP
Briefly: flow cytometry on cyno TIM-3-expressing transfectant cells. (Flow cytometry measures light scatter and fluorescence of single cells or particles in a stream.)
Experimental: Cross species binding (FACS): the binding of TIM-3 antibodies to cynomolgus monkey TIM-3 was determined by FACS. […] MFI of the cells was measured by a flow cytometer and analyzed by FlowJo.

Experiment [2] deals with T2, human TIM-4 (human, UniProt Q96H15 25-314, limits assumed).
T2 sequence (looked up): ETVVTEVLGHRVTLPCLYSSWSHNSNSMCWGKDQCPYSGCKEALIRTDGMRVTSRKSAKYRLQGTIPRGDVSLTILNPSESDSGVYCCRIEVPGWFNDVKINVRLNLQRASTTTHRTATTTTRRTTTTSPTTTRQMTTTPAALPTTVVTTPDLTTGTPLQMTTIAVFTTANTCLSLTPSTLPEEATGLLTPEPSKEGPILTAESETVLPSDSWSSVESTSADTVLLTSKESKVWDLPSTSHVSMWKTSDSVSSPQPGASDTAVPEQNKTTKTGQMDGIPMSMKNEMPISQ
Briefly: ELISA on plate-coated human TIM-4. In general terms: An ELISA detects its analyte on a solid surface through an enzyme-linked reagent.
Text: (§1) The binding of the antibodies to the plates was detected by corresponding HRP-conjugated 2nd antibodies (see FIGS. 3A-3C).

For experiment [3], the target named is T3, W340-cynoPro1.ECD.Fc (cynomolgus monkey, UniProt A0A2K5U3G7 22-195).
T3 construct: extracellular domain; also called cynomolgus monkey TIM-3.ECD protein; not shown: C-terminal Fc tag
T3 sequence: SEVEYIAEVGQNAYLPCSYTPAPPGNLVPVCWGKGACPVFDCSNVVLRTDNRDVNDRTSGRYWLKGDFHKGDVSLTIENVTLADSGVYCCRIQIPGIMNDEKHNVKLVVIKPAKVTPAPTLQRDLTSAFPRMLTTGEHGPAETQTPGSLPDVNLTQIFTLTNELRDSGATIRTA
Briefly: SPR (Biacore 8K); cyno TIM-3 ECD on CM5 chip, antibody as analyte, 1:1 fit.

Experiment [4] has as its target T4, human TIM-1 (human, UniProt Q96D42 21-290, limits assumed).
T4 sequence (looked up): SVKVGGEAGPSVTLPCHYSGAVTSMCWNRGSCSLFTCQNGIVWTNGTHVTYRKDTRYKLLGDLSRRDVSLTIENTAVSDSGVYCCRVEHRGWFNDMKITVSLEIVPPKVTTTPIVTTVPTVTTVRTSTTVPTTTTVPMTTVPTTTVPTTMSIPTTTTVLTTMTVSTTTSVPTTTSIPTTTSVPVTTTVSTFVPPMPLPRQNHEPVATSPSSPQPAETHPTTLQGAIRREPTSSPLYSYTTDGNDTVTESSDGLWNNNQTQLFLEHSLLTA
As to the kind of experiment: ELISA on plate-coated human TIM-1.
Text: as §1

Experiment [5] has as its target T5, hTIM-3.ECD.his (human, UniProt Q8TDQ0 22-202).
T5 construct: extracellular domain; also called W340-hPro1.ECD.His; human TIM-3 (SPR analyte); not shown: C-terminal His tag
Briefly: SPR Koff ranking; antibody captured on anti-human IgG GLM chip, analyte W340-hPro1.ECD.His.

The target of experiment [6] is T5, hTIM-3.ECD.his. As to the kind of experiment: SPR, full kinetics.

B1: W3402-2.131.17-z3 (antibody, IgG4, V domains shown)
VH: QVQLQESGPGLVKPSETLSLTCTVSGFSLTNYGVGWIRQPPGKGLEWIGIMTSGGSTYYNSALRARVTINRDTSKNQFSLKLSSVTAADTAVYYCTRDGTTVETLFDYWGQGTMVTVSS
VL: DIVMTQTPLSLSVTPGQPASISCRSSQSLSDSAGITYLYWYLQKPGQSPQLLIYLASNLGSGVPDRFSGSGSGTDFTLKISRVEAEDVGVYYCMQGIHVPLTFGQGTKLEIK
notes: Humanized monoclonal antibody with a kappa light chain; also called W3402-z3; humanized variant W3402-z3
For the molecule B1, the EC50 in experiment [1] is 0.32 nM. In addition, the binding result in experiment [2] and in experiment [4] was “no binding (tested: 66.7 nM)” throughout. Moreover, the Kd in experiment [3] stood at 0.0209 nM.

B2: chimeric W3402-x (antibody, human IgG4, V domains shown)
VH: QVQLKESGPGLVQSSQTLSLTCTVSGFSLTNYGVGWIRQPPGKGLEWIAIMTSGGSTYYNSALRARLNINRDTSKSQVFLEVNSLHTEDTATYFCTRDGTTVETLFDYWGQGLMVTVSS
VL: DVVLTQTPSTLSAIIGQSVSISCRSSQSLSDSAGITYLYWYLQRPGQSPQLLIYLASNLGSGVPNRFSGSGSGTDFTLKISGVEPEDLGVYHCMQGIHVPLTFGSGTKLEIK
notes: also called parental chimeric W3402-x; Parental xAb
B2 showed an off-rate constant (koff) in experiment [5] of 1.95e-06 s⁻¹. Further, in experiment [6], binding was put at a Kd of 0.00937 nM, the koff amounted to 2.12e-05 s⁻¹ and the kon came out at 2.26e+06 M⁻¹ s⁻¹.
